Reference: patent US8357518B2, “Thermostable enzymes for the hydrolysis of mannan-containing polysaccharides” (The Board of Trustees of the University of Illinois, priority 2010, dated 2013)

Key:
Assay type in all cases: biochemical, Caldanaerobius polysaccharolyticus
[1] = substrate: O=[N+]([O-])c1ccc(O[C@@H]2O[C@H](CO)[C@@H](O)[C@H](O)[C@@H]2O)cc1; assay: Kinetic properties with pNP-linked sugars (Man5B E137A); conditions: other: Man5B E137A 2 μM, at 10 mM substrate, 65° C., pH 5.5
Method: (§1) Determination of kinetic properties for wild type and mutant Man5B with pNP-linked sugars. Kinetic properties of wild type and mutant Man5B were determined for pNP-β-D-mannopyranoside and pNP-β-D-cellobioside. The substrate concentrations ranged from 0.06 to 10 mM and reactions were performed at 65° C. in citrate buffer (50 mM sodium citrate, pH 5.5). The reactions were equilibrated to 65° C. using a thermostated Cary 300 UV-Vis spectrophotometer, and the reactions were initiated by the addition of wild type (5 nM, final concentration) or mutant (2 μM, final concentration) Man5B. The rate of pNP release was determined by continuously monitoring the absorbance at 400 nm. Initial rate data were then plotted against the substrate concentrations, and the values of the Michaelis-Menten constant (KM) and the maximum velocity (Vmax) were estimated from a nonlinear curve fit using GraphPad Prism v5.01 from GraphPad Software (San Diego, Calif.). The kcat was calculated as the quotient of the Vmax and the concentration of enzyme used in the reaction.
(§2) Site-directed mutagenesis. Mutagenesis was carried out using PCR-based […] […]
(§3) Next, to test whether the mutations introduced in Man5B had any effects on the catalytic activity of this enzyme, the catalytic parameters for the wild type and mutant enzymes were determined using pNP-β-D-cellobioside and pNP-β-D-mannopyranoside as substrates.

[2] = substrate: O=[N+]([O-])c1ccc(O[C@@H]2O[C@H](CO)[C@@H](O[C@@H]3O[C@H](CO)[C@@H](O)[C@H](O)[C@H]3O)[C@H](O)[C@H]2O)cc1; assay: as above; conditions: other: Man5B E137A 2 μM, at 10 mM substrate, 65° C., pH 5.5
Method: as §1, §2, §3

[3] = substrate: O=[N+]([O-])c1ccc(O[C@@H]2O[C@H](CO)[C@@H](O)[C@H](O)[C@@H]2O)cc1; assay: Kinetic properties with pNP-linked sugars (Man5B E258A); conditions: other: Man5B E258A 2 μM, at 10 mM substrate, 65° C., pH 5.5
Method: as §1, §2, §3

[4] = substrate: O=[N+]([O-])c1ccc(O[C@@H]2O[C@H](CO)[C@@H](O[C@@H]3O[C@H](CO)[C@@H](O)[C@H](O)[C@H]3O)[C@H](O)[C@H]2O)cc1; assay: as above; conditions: other: Man5B E258A 2 μM, at 10 mM substrate, 65° C., pH 5.5
Method: as §1, §2, §3

[5] = substrate: O=[N+]([O-])c1ccc(O[C@@H]2O[C@H](CO)[C@@H](O)[C@H](O)[C@@H]2O)cc1; assay: Kinetic properties with pNP-linked sugars (Man5B E137Q); conditions: other: Man5B E137Q 2 μM, at 10 mM substrate, 65° C., pH 5.5
Method: as §1
(§4) Site-directed mutagenesis. Mutagenesis was carried out using PCR-based […] XL site-directed mutagenesis kit from Stratagene (La Jolla, Calif.) according to the manufacturer's instructions. Mutagenic primers with the desired mutation were designed using the […]® Primer Design Program (Stratagene website) and are listed in Table 1-2). The DNA templates for the PCR amplifications were the pET28a-Man5A-TM1 plasmid and the pET46-Man5B plasmid for generation of the Man5A-TM1 and Man5B mutants, respectively. Following 18 cycles of PCR using Pfu Turbo, the PCR mixture was digested with DpnI at 37° C. for 12 h to remove the parental DNA, and the resulting DNA was transformed into competent E. coli JM109 cells through electroporation. The DNA was sequenced to confirm that there were no PCR-derived nucleotide changes except those introduced by the PCR primers. The mutated genes were then expressed to produce the mutant recombinant proteins. The expression and purification methods were as described above for wild-type Man5A-TM1 and Man5B.
as §3

[6] = substrate: O=[N+]([O-])c1ccc(O[C@@H]2O[C@H](CO)[C@@H](O[C@@H]3O[C@H](CO)[C@@H](O)[C@H](O)[C@H]3O)[C@H](O)[C@H]2O)cc1; assay: as above; conditions: other: Man5B E137Q 2 μM, 65° C., citrate buffer pH 5.5
Method: as §1, §4, §3

[7] = substrate: O=[N+]([O-])c1ccc(O[C@@H]2O[C@H](CO)[C@@H](O)[C@H](O)[C@@H]2O)cc1; assay: Kinetic properties with pNP-linked sugars (Man5B E258Q); conditions: other: Man5B E258Q 2 μM, at 10 mM substrate, 65° C., pH 5.5
Method: as §1, §2, §3

[8] = substrate: O=[N+]([O-])c1ccc(O[C@@H]2O[C@H](CO)[C@@H](O[C@@H]3O[C@H](CO)[C@@H](O)[C@H](O)[C@H]3O)[C@H](O)[C@H]2O)cc1; assay: as above; conditions: other: Man5B E258Q 2 μM, at 10 mM substrate, 65° C., pH 5.5
Method: as §1, §2, §3

B1: Caldanaerobius polysaccharolyticus endo-β-mannanase Man5B (SEQ ID NO: 31) variant E137A (Caldanaerobius polysaccharolyticus; E137A) (protein)
chain: MKKYGFNFQWMYVWEEGREPEPPDKKALDFLAETGFNFVRIPVDYRFWTRNFDYFNPDKKVFEYIDLYLRECSARNIHMCLNLHRAPGYCINRNDIERDNLWLDKRAQDGFVYQWELFAKRYKGVSSKFLSFDLVNAPPNIGQYGLTRENHASLIIRTVEAIRKIDPDREIVIDGLGGGNIAMPELAHLGVVHSGRGYQPMALTHYQASWWDGHKGLPEPYYPDLLWQGKVWNKDTLREYYKPWRDLQQKGVNVHIGEFGCFNKTSNDVAIRWFEDVLSLYKEFEWGYSLWNFKGPFGIVEHGRPGAKYEYYRGFKVDRELLDLLVENRV
B1 showed a kcat [1] of 0.019 ± 0.001 s⁻¹ and a kcat [2] of 0.011 ± 0.004 s⁻¹.

B2: Caldanaerobius polysaccharolyticus endo-β-mannanase Man5B (SEQ ID NO: 31) variant E258A (Caldanaerobius polysaccharolyticus; E258A) (protein)
chain: MKKYGFNFQWMYVWEEGREPEPPDKKALDFLAETGFNFVRIPVDYRFWTRNFDYFNPDKKVFEYIDLYLRECSARNIHMCLNLHRAPGYCINRNDIERDNLWLDKRAQDGFVYQWELFAKRYKGVSSKFLSFDLVNEPPNIGQYGLTRENHASLIIRTVEAIRKIDPDREIVIDGLGGGNIAMPELAHLGVVHSGRGYQPMALTHYQASWWDGHKGLPEPYYPDLLWQGKVWNKDTLREYYKPWRDLQQKGVNVHIGAFGCFNKTSNDVAIRWFEDVLSLYKEFEWGYSLWNFKGPFGIVEHGRPGAKYEYYRGFKVDRELLDLLVENRV
Protein B2 has a kcat [3] of 0.018 ± 0.003 s⁻¹ and a kcat [4] of 0.011 ± 0.001 s⁻¹.

B3: Caldanaerobius polysaccharolyticus endo-β-mannanase Man5B (SEQ ID NO: 31) variant E137Q (Caldanaerobius polysaccharolyticus; E137Q) (protein)
chain: MKKYGFNFQWMYVWEEGREPEPPDKKALDFLAETGFNFVRIPVDYRFWTRNFDYFNPDKKVFEYIDLYLRECSARNIHMCLNLHRAPGYCINRNDIERDNLWLDKRAQDGFVYQWELFAKRYKGVSSKFLSFDLVNQPPNIGQYGLTRENHASLIIRTVEAIRKIDPDREIVIDGLGGGNIAMPELAHLGVVHSGRGYQPMALTHYQASWWDGHKGLPEPYYPDLLWQGKVWNKDTLREYYKPWRDLQQKGVNVHIGEFGCFNKTSNDVAIRWFEDVLSLYKEFEWGYSLWNFKGPFGIVEHGRPGAKYEYYRGFKVDRELLDLLVENRV
With B3 the kcat [5] was 0.018 ± 0.006 s⁻¹, the Km [6] was “(2.9 ± 0.9) × 10^−1 mM” and the kcat [6] was 0.047 ± 0.01 s⁻¹. The kcat/Km [6] was 160 ± 60 M⁻¹ s⁻¹.

B4: Caldanaerobius polysaccharolyticus endo-β-mannanase Man5B (SEQ ID NO: 31) variant E258Q (Caldanaerobius polysaccharolyticus; E258Q) (protein)
chain: MKKYGFNFQWMYVWEEGREPEPPDKKALDFLAETGFNFVRIPVDYRFWTRNFDYFNPDKKVFEYIDLYLRECSARNIHMCLNLHRAPGYCINRNDIERDNLWLDKRAQDGFVYQWELFAKRYKGVSSKFLSFDLVNEPPNIGQYGLTRENHASLIIRTVEAIRKIDPDREIVIDGLGGGNIAMPELAHLGVVHSGRGYQPMALTHYQASWWDGHKGLPEPYYPDLLWQGKVWNKDTLREYYKPWRDLQQKGVNVHIGQFGCFNKTSNDVAIRWFEDVLSLYKEFEWGYSLWNFKGPFGIVEHGRPGAKYEYYRGFKVDRELLDLLVENRV
B4 was tested, and the kcat [7] was 0.012 ± 0.002 s⁻¹ and the kcat [8] was 0.012 ± 0.004 s⁻¹.
